In article doi:10.1101/236612 (bioRxiv, 2017):

Tests used:
Test in all cases: co-IP
GFP-tagged TOMM70 = target: T1, GFP-tagged TOMM70 (UniProt O94826 1-608)
T1 sequence: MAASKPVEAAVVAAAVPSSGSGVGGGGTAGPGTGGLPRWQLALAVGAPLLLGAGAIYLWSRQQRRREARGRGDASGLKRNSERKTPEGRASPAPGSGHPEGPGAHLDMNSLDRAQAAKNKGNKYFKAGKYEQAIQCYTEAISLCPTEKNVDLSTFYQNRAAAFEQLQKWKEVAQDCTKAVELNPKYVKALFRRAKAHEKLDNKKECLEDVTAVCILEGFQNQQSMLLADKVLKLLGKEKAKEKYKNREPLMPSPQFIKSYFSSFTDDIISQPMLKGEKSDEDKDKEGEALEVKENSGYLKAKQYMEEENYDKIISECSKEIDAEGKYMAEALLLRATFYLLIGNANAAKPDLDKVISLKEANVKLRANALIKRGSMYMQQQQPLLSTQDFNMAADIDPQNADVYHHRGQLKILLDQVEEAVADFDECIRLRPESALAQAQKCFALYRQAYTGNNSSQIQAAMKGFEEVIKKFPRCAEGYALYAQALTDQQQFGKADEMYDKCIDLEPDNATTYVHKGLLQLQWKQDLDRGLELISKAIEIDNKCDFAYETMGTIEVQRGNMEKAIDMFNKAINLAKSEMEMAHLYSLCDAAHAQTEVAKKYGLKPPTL

[1] = target: T2, GFP-tagged Prohibitin (PHB) (UniProt P35232 1-272)
T2 sequence: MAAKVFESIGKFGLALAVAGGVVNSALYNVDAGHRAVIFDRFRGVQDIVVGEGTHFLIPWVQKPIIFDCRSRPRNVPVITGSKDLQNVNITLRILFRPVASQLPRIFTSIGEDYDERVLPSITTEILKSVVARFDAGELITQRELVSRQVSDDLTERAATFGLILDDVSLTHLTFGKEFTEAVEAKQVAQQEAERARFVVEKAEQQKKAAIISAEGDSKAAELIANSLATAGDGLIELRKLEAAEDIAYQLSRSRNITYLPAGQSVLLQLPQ

GFP-tagged TOMM20 = target: T3, GFP-tagged TOMM20 (UniProt Q15388 1-145)
T3 sequence: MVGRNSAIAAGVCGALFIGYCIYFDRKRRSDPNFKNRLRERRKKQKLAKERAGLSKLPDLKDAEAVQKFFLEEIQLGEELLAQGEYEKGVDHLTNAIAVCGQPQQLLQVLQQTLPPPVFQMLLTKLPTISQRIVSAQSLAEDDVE

fold less AURKA in the pulldown than in pulldowns of TPX2 (GFP-tagged TOMM70): ≥ 10 fold
fold less AURKA in the pulldown than in pulldowns of TPX2 [1]: ≥ 10 fold
fold less AURKA in the pulldown than in pulldowns of TPX2 (GFP-tagged TOMM20): ≥ 10 fold
B1: endogenous AURKA (Aurora A kinase) (enzyme)
chain: MDRSKENCISGPVKATAPVGGPKRVLVTQQFPCQNPLPVNSGQAQRVLCPSNSSQRIPLQAQKLVSSHKPVQNQKQKQLQATSVPHPVSRPLNNTQKSKQPLPSAPENNPEEELASKQKNEESKKRQWALEDFEIGRPLGKGKFGNVYLAREKQSKFILALKVLFKAQLEKAGVEHQLRREVEIQSHLRHPNILRLYGYFHDATRVYLILEYAPLGTVYRELQKLSKFDEQRTATYITELANALSYCHSKRVIHRDIKPENLLLGSAGELKIADFGWSVHAPSSRRTTLCGTLDYLPPEMIEGRMHDEKVDLWSLGVLCYEFLVGKPPFEANTYQETYKRISRVEFTFPDFVTEGARDLISRLLKHNPSQRPMLREVLEHPWITANSSKPSNCQNKESASKQS
